Laboratory results: publication PMC11257990, “Noncanonical assembly, neddylation and chimeric cullin–RING/RBR ubiquitylation by the 1.8 MDa CUL9 E3 ligase complex” (Nature Structural & Molecular Biology, 2024)

Molecular target: T1, UBE2L3 (human, UniProt P68036 1-154)
T1 construct: UBE2L3, human; source: E. coli Rosetta 2 (DE3), purified (glutathione sepharose, TEV cleavage, ion exchange, SEC)
Assay: ITC; E2 (300–500 μM) in the syringe, CUL9^ARIH-RBR (25 μM) in the cell; 25 °C; 25 mM HEPES pH 7.5, 150 mM NaCl, 0.5 mM TCEP; 19 × 2 μl injections; single-site model
Settings: both partners purified

T1 sequence (P68036 whole entry): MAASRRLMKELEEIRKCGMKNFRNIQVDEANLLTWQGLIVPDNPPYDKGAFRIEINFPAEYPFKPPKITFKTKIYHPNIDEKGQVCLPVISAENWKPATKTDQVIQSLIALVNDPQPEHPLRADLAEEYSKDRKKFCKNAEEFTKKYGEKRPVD

B1: CUL9^ARIH-RBR (domain or fragment, human, UniProt Q8IWT3 1979-2517, looked up)
chain: SPEAVATLASLQLPAGRTMSPQEVEGLMKQTVRQVQETLNLEPDVAQHLLAHSHWGAEQLLQSYSEDPEPLLLAAGLCVHQAQAVPVRPDHCPVCVSPLGCDDDLPSLCCMHYCCKSCWNEYLTTRIEQNLVLNCTCPIADCPAQPTGAFIRAIVSSPEVISKYEKALLRGYVESCSNLTWCTNPQGCDRILCRQGLGCGTTCSKCGWASCFNCSFPEAHYPASCGHMSQWVDDGGYYDGMSVEAQSKHLAKLISKRCPSCQAPIEKNEGCLHMTCAKCNHGFCWRCLKSWKPNHKDYYNCSAMVSKAARQEKRFQDYNERCTFHHQAREFAVNLRNRVSAIHEVPPPRSFTFLNDACQGLEQARKVLAYACVYSFYSQDAEYMDVVEQQTENLELHTNALQILLEETLLRCRDLASSLRLLRADCLSTGMELLRRIQERLLAILQHSAQDFRVGLQSPSVEAWEAKGPNMPGSQPQASSGPEAEEEEEDDEDDVPEWQQDEFDEELDNDSFSYDESENLDQETFFFGDEEEDEDEAYD
notes: CUL9, human, ARIH-RBR element, residues 1979-2517; also called CUL9 RBR element; source: HEK293S, baculovirus infection, without RBX1, purified; not shown: TwinStrep, N-terminal, cleaved
binding result: binds
